Data: US20260116960A1 (SHANGHAI HONGCHENG BIOPHARMACEUTICAL, published 2026)

How the values were obtained:
[1] = target: T1, human VEGF165-his protein (Acro, Catalog No. VE5-H5248) (human, UniProt P15692-4 27-191); experiment: ELISA, plate coated with human VEGF165-his
T1 construct: Bought protein; also called hVEGF165-His; VEGFA; not shown: his tag
Description: ELISA was used to determine the activity of the trispecific antibodies binding to the PD-1 protein: 1 μg/mL human PD-1 protein (Acro, Catalog No.: PD1-H5221) was used to coat a high-adsorption 96-well ELISA plate and incubated at 4° C. overnight. On the next day, the plate was washed three times with PBST solution and blocked with 1% BSA-PBS solution at 37° C. for 1 hour. At the same time, 3-fold gradient dilutions of the antibody were prepared with 1% BSA-PBS solution, with a starting concentration of 10 nM. The antibodies of each gradient concentration were added to the blocked 96-well ELISA plate at 100 µL/well in triplicate and incubated at 37° C. for 1 hour. The plate was then washed three times with 0.05% PBST solution, and 100 μL/well of HRP-labeled secondary antibody (Sigma, Catalog No.: A0170) diluted at 1:5000 was added to the ELISA plate and incubated at 37° C. for 1 hour. The plate was washed three times with 0.05% PBST solution and developed with TMB. The absorbance of the 96-well ELISA plate at 450 nm was detected by an ELISA reader. The OD₄₅₀ value was fitted using a four-parameter model to calculate the EC₅₀ value of each antibody binding to PD-1.
The binding activity of the trispecific antibodies to VEGFA protein was detected by ELISA method as described in Section 2.1. The used human VEGF165-his protein was purchased from Acro, Catalog No.: VE5-H5248.

[2] = target: T2, human CTLA-4 on the cell surface (human, UniProt P16410 36-223); experiment: flow cytometry competition, 293T-hPD-1-hCTLA-4 cells (PD-1 co-expressed), biotin-human CD80
T2 construct: whole, on cells; also called CHO-hCTLA-4 cells; CHOK1-hCTLA4 cells

[3] = target: T3, human CTLA-4 protein (Acro, Catalog No. CT4-H52H9) (human, UniProt P16410 36-161); experiment: ELISA, plate coated with human CTLA-4 protein
T3 construct: Bought protein

[4] = target: T4, human PD-1 on the cell surface (human, UniProt Q15116 25-288); experiment: flow cytometry, 293T-hPD-1 cells, batch FACS#1
T4 construct: whole, on cells; also called cell surface PD-1
Description: (§1) After centrifugation at 300 g for 5 minutes, the supernatant was discarded. The antibodies were serially diluted 3-fold with FACS buffer to obtain two gradient series solution FACS #1 and FACS #2, with the starting concentration of 200 nM (Table 5, FACS #1) or 100 nM (Table 5, FACS #2, FIG. 2), respectively. Then 100 μL/well was added to a 96-well plate in triplicate, mixed, and incubated at 4° C. for 60 min. The plate was centrifuged and washed three times with FACS buffer. 100 μL/well of 1:800 diluted AF647-anti-hIgG(H+L) (Jackson, Catalog No.: 109-605-003) was added and incubated at 4° C. for 50 minutes. After washing the plate three times with FACS buffer, 100 μL/well of FACS buffer was added to resuspend the cells, and the fluorescence signal was detected on a flow cytometer (BECKMAN COULTER cytoFLEX). The binding activity was fitted using a four-parameter model to calculate the EC₅₀ value of each antibody binding to PD-1.

[5] = target: T2, human CTLA-4 on the cell surface; experiment: flow cytometry, CHO-hCTLA-4 cells, batch FACS#3
[6] = target: T4, human PD-1 on the cell surface; experiment: flow cytometry, 293T-hPD-1 cells, batch FACS#2
Description: as §1

[7] = target: T2, human CTLA-4 on the cell surface; experiment: flow cytometry, CHO-hCTLA-4 cells, batch FACS#4
[8] = target: T1, human VEGF165-his protein (Acro, …); experiment: competitive ELISA, VEGF165-His coated, biotin-human KDR

T1 sequence (P15692 other isoform, or with tags, fused parts or gaps limits assumed): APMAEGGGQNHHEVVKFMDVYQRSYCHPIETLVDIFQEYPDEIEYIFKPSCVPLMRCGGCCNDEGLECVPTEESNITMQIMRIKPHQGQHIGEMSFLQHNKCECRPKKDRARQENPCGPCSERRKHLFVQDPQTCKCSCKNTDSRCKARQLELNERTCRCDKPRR
T4 sequence (Q15116 25-288): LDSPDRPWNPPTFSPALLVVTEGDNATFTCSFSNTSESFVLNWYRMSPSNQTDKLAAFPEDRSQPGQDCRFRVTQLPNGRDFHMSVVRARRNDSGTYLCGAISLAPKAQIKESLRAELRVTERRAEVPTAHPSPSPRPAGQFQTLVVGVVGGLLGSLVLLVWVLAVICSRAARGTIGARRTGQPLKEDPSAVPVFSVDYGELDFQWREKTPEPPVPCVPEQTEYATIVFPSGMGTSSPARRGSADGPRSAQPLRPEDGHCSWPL
T2 sequence (P16410 36-223): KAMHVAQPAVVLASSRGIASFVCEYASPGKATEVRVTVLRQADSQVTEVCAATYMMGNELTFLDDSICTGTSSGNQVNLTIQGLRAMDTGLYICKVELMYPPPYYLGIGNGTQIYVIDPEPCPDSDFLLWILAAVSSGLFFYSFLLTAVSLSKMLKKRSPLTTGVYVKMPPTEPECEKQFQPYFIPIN
T3 sequence (P16410 36-161 limits assumed): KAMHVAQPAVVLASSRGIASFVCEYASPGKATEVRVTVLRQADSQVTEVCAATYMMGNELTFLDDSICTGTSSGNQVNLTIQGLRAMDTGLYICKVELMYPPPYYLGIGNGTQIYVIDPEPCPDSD

Binder	EC50 [1]	IC50 [2]	EC50 [3]	EC50 [4]	EC50 [5]	EC50 [6]	EC50 [7]	IC50 [8]
HC010-F9 (trispecific antibody, human IgG4 S228P, kappa, light: CQ1-3/1-11 VL-kappa; also called H010-F9) heavy: not shown light: DIQMTQSPSSLSASVGDRVTITCRASESVDNYGISFMNWYQQKPGKAPKLLIYAASNQGSGVPSRFSGSGSGTDFTLTISSLQPEDFATYYCQQSKEVPWTFGGGTKVEIKRTVAAPSVFIFPPSDEQLKSGTASVVCLLNNFYPREAKVQWKVDNALQSGNSQESVTEQDSKDSTYSLSSTLTLSKADYEKHKVYACEVTHQGLSSPVTKSFNRGEC	0.111 nM	~0.002 nM	0.031 nM	3.53 nM	2.8 nM			
HC010-F10 (trispecific antibody, human IgG4 S228P, kappa, light: CQ1-3/1-11 VL-kappa; also called H010-F10) heavy: not shown light: DIQMTQSPSSLSASVGDRVTITCRASESVDNYGISFMNWYQQKPGKAPKLLIYAASNQGSGVPSRFSGSGSGTDFTLTISSLQPEDFATYYCQQSKEVPWTFGGGTKVEIKRTVAAPSVFIFPPSDEQLKSGTASVVCLLNNFYPREAKVQWKVDNALQSGNSQESVTEQDSKDSTYSLSSTLTLSKADYEKHKVYACEVTHQGLSSPVTKSFNRGEC	0.121 nM	0.056 nM	0.093 nM	5.77 nM	6.19 nM	2.37 nM	4.86 nM	6.76 nM
